Kd data for ten molecules are collected here from PMC4912634 (2016).

Positions count from the first letter of the chain named. In names and notes the source's numbering stands.

B1: Y341A (protein)
chain: VANIEERPIKAAIGERKQTFEDALEEQIQLEEQELKQKQLKEAEGPLPIKAKPKQPFLKRGEGLARFTNAKSKFQK
B2: F385A (protein)
chain: B1 chain with A23Y, F67A
B3: K377E (protein)
chain: B1 chain with A23Y, K59E
B4: K372E (protein)
chain: B1 chain with A23Y, K54E
B5: R378E (protein)
chain: B1 chain with A23Y, R60E
B6: EE349RR (protein)
chain: B1 chain with A23Y, E31R, E32R
B7: R384E (protein)
chain: B1 chain with A23Y, R66E
B8: ED339RR (protein)
chain: B1 chain with E21R, D22R, A23Y
B9: F338A (protein)
chain: B1 chain with F20A, A23Y
B10: PN2-3C peptide (PN2-3's C-terminus, aa 372-394 of CPAP) (peptide)
peptide: KQPFLKRGEGLARFTNAKSKFQK

Sequence of tubulin heterodimer (porcine/bovine brain tubulin) (chain, as listed by the source, chain 1 of 2): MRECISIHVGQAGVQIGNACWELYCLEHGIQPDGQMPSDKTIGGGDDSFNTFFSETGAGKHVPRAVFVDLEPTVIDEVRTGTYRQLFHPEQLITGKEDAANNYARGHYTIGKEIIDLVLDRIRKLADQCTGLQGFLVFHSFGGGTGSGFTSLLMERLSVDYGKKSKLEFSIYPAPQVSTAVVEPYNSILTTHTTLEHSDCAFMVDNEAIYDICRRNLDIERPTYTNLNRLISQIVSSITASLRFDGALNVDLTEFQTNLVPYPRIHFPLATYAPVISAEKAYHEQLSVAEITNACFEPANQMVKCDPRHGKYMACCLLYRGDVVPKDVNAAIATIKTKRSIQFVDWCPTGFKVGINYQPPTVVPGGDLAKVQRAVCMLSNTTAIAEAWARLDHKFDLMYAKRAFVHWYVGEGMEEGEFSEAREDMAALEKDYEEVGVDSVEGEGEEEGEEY
Sequence of tubulin heterodimer (porcine/bovine brain tubulin) (Q6B856 whole entry, chain 2 of 2): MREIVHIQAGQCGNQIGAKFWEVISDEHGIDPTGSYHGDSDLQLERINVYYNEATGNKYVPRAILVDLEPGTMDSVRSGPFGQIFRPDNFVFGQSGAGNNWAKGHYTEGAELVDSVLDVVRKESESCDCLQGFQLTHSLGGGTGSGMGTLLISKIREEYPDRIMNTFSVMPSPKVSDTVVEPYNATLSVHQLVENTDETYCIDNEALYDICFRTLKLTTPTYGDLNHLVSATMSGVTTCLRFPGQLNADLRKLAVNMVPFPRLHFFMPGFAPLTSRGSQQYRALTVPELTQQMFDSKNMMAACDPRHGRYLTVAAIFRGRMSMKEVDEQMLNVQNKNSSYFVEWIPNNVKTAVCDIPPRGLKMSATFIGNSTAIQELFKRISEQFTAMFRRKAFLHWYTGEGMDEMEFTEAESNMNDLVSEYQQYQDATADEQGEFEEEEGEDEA
Sequence of DARPin-tubulin complex (used in ITC) (chain, as listed by the source, chain 1 of 3): as the sequence (chain, as listed by the source, chain 1 of 2) above
Sequence of DARPin-tubulin complex (used in ITC) (Q6B856 whole entry, chain 2 of 3): as the sequence (Q6B856 whole entry, chain 2 of 2) above
Sequence of DARPin-tubulin complex (used in ITC) (chain, as listed by the source, chain 3 of 3): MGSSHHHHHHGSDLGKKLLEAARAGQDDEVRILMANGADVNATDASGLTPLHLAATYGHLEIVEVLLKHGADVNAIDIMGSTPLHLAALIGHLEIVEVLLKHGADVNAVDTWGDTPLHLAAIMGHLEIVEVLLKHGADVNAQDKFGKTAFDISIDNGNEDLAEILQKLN

One experiment concerns the target tubulin heterodimer (porcine/bovine brain tubulin) ( (porcine or bovine brain), UniProt Q6B856 1-445). Put plainly: ITC. For orientation: Isothermal titration calorimetry measures the heat released or taken up as one component is titrated into another.
A word on the Kd: it is a measure of binding affinity in units of concentration. A high value points to a looser complex. Turning to B1, binding was put at a Kd of 136 nM.

Regarding B2, the Kd turned out to be 100 nM.

B3: the Kd was determined as 1300 nM.

Take B4: binding was put at a Kd of 400 nM.

B5 returned an equilibrium dissociation constant (Kd) of 800 nM.

Regarding B6, binding was put at a Kd of 256 nM.

In turn, B7 came in with a dissociation constant (Kd) of 1900 nM.

Consider B8, for which binding was put at a Kd of 143 nM.

Regarding B9, the dissociation constant (Kd) amounted to 116 nM.

A further experiment has as its target DARPin-tubulin complex (used in ITC) ( (porcine or bovine brain), UniProt Q6B856 1-445). Description: ITC.
In turn, B10 came in with a Kd of 3400 nM.
